From patent publication US20250250343A1
Read-outs that look alike come from different tables or passages of the source.

Columns and labels:
VEGF (human) [1] = biological target: VEGF (human) (UniProt P15692)
VEGF (human) [2] = biological target: VEGF (human) (UniProt P15692); remark: listed apart in the source
VEGF (human) [3] = biological target: VEGF (human) (UniProt P15692); remark: listed apart in the source
human Tie2 (human) [4] = biological target: human Tie2 (human) (UniProt Q02763)
human Tie2 (human) [5] = biological target: human Tie2 (human) (UniProt Q02763); remark: listed apart in the source
human Tie2 (human) [6] = biological target: human Tie2 (human) (UniProt Q02763); remark: listed apart in the source
human Tie2 (human) [7] = biological target: human Tie2 (human) (UniProt Q02763); remark: listed apart in the source
human Tie2 (human) [8] = biological target: human Tie2 (human) (UniProt Q02763); remark: listed apart in the source

Ang1, sequence (Q15389 20-498 limits assumed): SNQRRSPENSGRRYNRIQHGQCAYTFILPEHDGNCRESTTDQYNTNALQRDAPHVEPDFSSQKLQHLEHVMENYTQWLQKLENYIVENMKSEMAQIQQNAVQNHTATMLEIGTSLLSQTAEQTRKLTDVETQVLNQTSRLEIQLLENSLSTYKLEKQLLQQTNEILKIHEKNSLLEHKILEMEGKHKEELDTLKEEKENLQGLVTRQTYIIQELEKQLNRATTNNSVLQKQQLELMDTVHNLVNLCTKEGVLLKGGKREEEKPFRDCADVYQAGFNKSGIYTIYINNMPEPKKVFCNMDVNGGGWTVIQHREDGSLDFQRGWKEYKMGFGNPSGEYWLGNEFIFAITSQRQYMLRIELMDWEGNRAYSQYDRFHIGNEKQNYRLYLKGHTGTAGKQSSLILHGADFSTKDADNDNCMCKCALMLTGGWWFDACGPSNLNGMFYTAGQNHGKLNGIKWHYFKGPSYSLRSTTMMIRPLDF
human Tie2 (human), sequence (Q02763 23-1124): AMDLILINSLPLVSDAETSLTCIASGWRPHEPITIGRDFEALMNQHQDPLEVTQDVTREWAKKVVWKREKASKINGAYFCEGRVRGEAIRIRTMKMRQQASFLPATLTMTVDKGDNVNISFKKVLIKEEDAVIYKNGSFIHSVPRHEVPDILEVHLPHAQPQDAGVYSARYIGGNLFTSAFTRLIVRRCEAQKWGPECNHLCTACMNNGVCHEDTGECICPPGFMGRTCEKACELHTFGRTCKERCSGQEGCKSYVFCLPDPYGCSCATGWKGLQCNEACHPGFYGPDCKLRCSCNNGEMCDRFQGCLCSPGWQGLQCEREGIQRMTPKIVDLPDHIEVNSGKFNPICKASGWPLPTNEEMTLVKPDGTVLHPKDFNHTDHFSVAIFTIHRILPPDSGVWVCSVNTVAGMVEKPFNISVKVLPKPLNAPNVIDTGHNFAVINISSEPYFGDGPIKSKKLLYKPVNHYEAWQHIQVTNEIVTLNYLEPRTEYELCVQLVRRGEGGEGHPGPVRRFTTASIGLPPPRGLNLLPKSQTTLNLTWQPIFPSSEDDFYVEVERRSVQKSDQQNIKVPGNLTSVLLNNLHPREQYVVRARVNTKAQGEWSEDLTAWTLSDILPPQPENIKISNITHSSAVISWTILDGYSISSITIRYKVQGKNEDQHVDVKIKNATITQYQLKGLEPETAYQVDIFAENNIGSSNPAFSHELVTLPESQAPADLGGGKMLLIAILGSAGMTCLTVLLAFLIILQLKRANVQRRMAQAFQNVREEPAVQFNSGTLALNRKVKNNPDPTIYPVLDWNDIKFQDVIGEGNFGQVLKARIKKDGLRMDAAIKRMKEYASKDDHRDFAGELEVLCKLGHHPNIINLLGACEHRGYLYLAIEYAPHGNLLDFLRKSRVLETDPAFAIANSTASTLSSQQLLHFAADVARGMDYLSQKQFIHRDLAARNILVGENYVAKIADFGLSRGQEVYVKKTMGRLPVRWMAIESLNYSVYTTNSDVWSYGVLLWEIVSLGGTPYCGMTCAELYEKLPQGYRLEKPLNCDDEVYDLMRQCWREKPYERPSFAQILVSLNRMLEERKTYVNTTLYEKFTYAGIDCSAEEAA
VEGF (human), sequence (P15692 other isoform, or with tags, fused parts or gaps limits assumed): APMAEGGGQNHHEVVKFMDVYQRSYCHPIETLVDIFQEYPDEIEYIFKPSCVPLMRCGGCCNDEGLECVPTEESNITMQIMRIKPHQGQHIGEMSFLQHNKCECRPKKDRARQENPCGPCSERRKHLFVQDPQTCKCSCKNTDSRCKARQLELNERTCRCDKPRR
Aflibercept-LALA-PG (Fc fusion), sequence (chain): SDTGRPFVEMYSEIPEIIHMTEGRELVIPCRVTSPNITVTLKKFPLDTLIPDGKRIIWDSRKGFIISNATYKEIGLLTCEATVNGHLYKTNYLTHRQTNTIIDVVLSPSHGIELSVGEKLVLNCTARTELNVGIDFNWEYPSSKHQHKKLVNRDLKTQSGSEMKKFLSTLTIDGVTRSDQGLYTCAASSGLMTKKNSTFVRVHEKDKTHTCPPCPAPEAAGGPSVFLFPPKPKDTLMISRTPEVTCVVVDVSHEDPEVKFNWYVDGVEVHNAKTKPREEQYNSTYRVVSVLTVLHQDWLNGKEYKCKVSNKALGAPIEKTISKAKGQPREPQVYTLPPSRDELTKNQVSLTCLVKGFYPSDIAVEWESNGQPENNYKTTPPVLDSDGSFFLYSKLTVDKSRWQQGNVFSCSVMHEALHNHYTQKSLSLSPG
Aflibercept (Fc fusion), sequence (chain): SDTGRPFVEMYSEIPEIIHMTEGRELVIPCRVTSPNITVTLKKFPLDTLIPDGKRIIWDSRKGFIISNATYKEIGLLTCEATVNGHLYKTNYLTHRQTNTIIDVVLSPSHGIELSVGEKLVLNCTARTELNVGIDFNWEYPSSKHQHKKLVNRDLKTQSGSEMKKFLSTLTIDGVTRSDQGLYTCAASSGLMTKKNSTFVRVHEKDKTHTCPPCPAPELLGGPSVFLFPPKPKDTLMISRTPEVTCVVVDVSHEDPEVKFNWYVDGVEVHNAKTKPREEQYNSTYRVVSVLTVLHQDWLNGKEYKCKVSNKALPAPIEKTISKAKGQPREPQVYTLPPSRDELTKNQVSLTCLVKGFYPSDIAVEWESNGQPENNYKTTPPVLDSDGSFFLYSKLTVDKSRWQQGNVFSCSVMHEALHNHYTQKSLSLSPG

## Aflibercept (Fc fusion)
VEGF (human) [1]
  EC50, VEGF inhibition, KDR/NFAT-RE HEK293 luciferase reporter [Panel C]: 0.28 nM

## Aflibercept-LALA-PG (Fc fusion)
VEGF (human) [2]
  EC50, VEGF neutralisation, KDR/NFAT-RE HEK293 luciferase reporter: 0.56 nM
VEGF (human) [3]
  IC50 (read off the curve); % VEGF activity, KDR/NFAT-RE HEK293 luciferase reporter [Panel A]: 0.6 nM

## Ang1 (from UniProt Q15389 20-498) (ligand)
Human Tie2 (human) [4]
  EC50, pTie2 in HUVEC, W/ VEGF (20 nM VEGF-165 per paragraph 153) [Panel E]: 0.0024 µM
  EC50, pTie2 in HUVEC, W/O VEGF [Panel E]: 0.00161 µM
Human Tie2 (human) [5]
  EC50, pTie2 in HUVEC (in vitro potency): 0.00458 µM
Human Tie2 (human) [6]
  EC50, pAkt in HUVEC (MSD ELISA) [Panel B]: 0.00171 µM
Human Tie2 (human) [7]
  EC50, pAkt in HUVEC (MSD ELISA) [Panel B]: 0.0041 µM
Human Tie2 (human) [8]
  EC50, pTIE2 in HUVEC [Panel C]: 0.00177 µM
